Test results reported in the domain aggregation screens of Martell et al. (2025).

Assay: soluble fraction after stress (log2 fold change); higher = more stays soluble; pooled small domains, quantitative proteomics
Conditions: stress: pH 4
Procedure, shortened: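 Aggregation propensity is read out as the fold change in how much of each domain remains soluble after acid stress. The custom small-domain libraries were pooled, held at pH 4 and analysed with high-throughput quantitative proteomics. On the log2 scale used, higher values mean more of the domain stayed soluble.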
In the case of “HMEKTKLPNLVDFTYRQAEALLQTHGLKVGKVERVPDVGQTVIKAKYKGKVISWGTELNKGEKIDLVIGKG”, the “soluble fraction (log2)” value is reported as 0.13. For “HMELADLPSAQIREILAYVYRAPLEKRRDPSIHWLLIAAHKLTLPLLDRLDPADARALGERYGADYP”, the “soluble fraction (log2)” value was -0.644. In the case of “HMELARLRPELDGNDIMRILGVPPGPVVGRAYTYLLELRINQGELGRERVTQLLLDWAAAEGISA”, the “soluble fraction (log2)” value is reported as -1.8. In the case of “HMELDMTFGEKIQKLRKESGLSQEELSYQLGVSRQAISKWERDSGYPETEKIVRMSKIFDVTLDYLLNE”, the “soluble fraction (log2)” value is reported as -1.06. In the case of “HMELEDTYTKNLDASLARLDEYQASKGLTDEQVDEVINSLIADAENIIMGVFTPELIDSKLKAMNYDQDV”, the “soluble fraction (log2)” value is reported as -0.17. For “HMELEFLTEKQKEALILAVNRGYYDVDSEVTLKRLADELGIARSTYGEHLKRAESEALKMVVSDLLRD”, the “soluble fraction (log2)” value was -1.03. With “HMELEIPGELIEAVRRLRDERQRMRLAGELAARQIQMHPERYTEASIDPVQTWDELRARILALA” the “soluble fraction (log2)” value was -0.582. For “HMELLSGTVEKVLTSGVLVKLPGGAIGFIPNSEMGTPRGTNHGKMFPAGTPLQVMVVEVNQDRGRITLSR”, the “soluble fraction (log2)” value was -0.389. In the case of “HMELLTNPLTGREVEVLTLMALGQTNHEIARQLYLATGTVKAHTSSIYRKLDVANRTEAVARARQLGIL”, the “soluble fraction (log2)” value is reported as -0.448. With “HMELLTYREMDVLNLLDQRLTNKEIAHALGISTETVRQHTVNLFRKLNVDNRRQAIVVARSLGYIGTPT” the “soluble fraction (log2)” value was -0.894. With “HMELNESVLKALYEKFREMSGSKGFITEDEVIIQLEKENPDITPDQQAEIFKYLYDTPLQIY” the “soluble fraction (log2)” value was -0.996. For “HMELNFEGFYRFVRDELNVDLNAYKEKQLKRRIATVMKSSGALTLEDYSRLIANDEVIRNKFLDYITI”, the “soluble fraction (log2)” value was -0.894. For “HMELPMGTQLPPERELAQQMQVSRAVVNGGLAELAQQGFLEVRPRQGTFVADYRRKGNLSTLIAIMEY”, the “soluble fraction (log2)” value was 0.22. In the case of “HMELPPLQPGQPIDGRVEQQIRAGYYVVSVRGRGYEFQLPESARPGDLLRMVYLNDHPRLTFALLRIDNAN”, the “soluble fraction (log2)” value is reported as -0.546. In the case of “HMELPVAVPHTELSPEALRGVVESFVLREGTDYGERDVPFEAKVAQVIRQLERGEARIMFDPVTQSVQIVT”, the “soluble fraction (log2)” value is reported as -0.411. In the case of “HMELRSPMPGLIIEIPVSKGDIIKKDQSLIILEAMKMENVLTSPINGKIADIKVNVQDTVEKNNLLITFEN”, the “soluble fraction (log2)” value is reported as -1.23. In the case of “HMELSESLENYLVVIYEAHLRNEIARIKDMTASLSVKHTSAIDAIKKLEDLGIVNYEKRGFVKLTQSGIEK”, the “soluble fraction (log2)” value is reported as -0.177. For “HMELSPAELGERLKVARETANVTQDAGAKAAGIARTTLVAIEKGQRSARIDELQTLSRRYGVSVNSLLRR”, the “soluble fraction (log2)” value was 0.096. For “HMELSSRQAMIVDIVRKYEPITSEQIADKLNLTRSALRPDLAVLTMIGILEARPRVGYFFTGK”, the “soluble fraction (log2)” value was -0.269. In the case of “HMELSTQERIQILLEILNQREIISFSQTLRKKEGKKGVVVTFLASLELAKDGYVTLVQNKSDQIYLRSN”, the “soluble fraction (log2)” value is reported as -0.428. In the case of “HMELTDSLTENAKKLYSVLTTEPRHIDDLSEEAKLSSADTLAALTELELYSLVALSEGKHYYK”, the “soluble fraction (log2)” value is reported as -1.05. With “HMELTKAELEVMQILWKLKKAFVGDILDRMVEPKPAYNTVSTVVRLLEKKGVVGHESFGKSHRYYPL” the “soluble fraction (log2)” value was -0.0549. For “HMELTVPDFTNMSLEDAINLAEKRDVRLEVTDSVFVKRLGRGFIYSQNPVAGSKVKKGRRILITINAIN”, the “soluble fraction (log2)” value was 0.113. In the case of “HMEMDPKELGRQVLAKRKEKGWSQEQLGKMAEISRNYVSQIERGEADSISIKIINRLAIALGVSPSDLGE”, the “soluble fraction (log2)” value is reported as 0.21. For “HMEMKHKNSQIFQAIKLKHMGFTPTQISEELRVSRTTINHWLTKAQLKDVKWEDIRENSADELVKLLFG”, the “soluble fraction (log2)” value was -0.322. For “HMEMNPLDIQNKAAELAQQWLQLPVGERQKQMAAVRTSNPNLHAMAKQKMEEMRSQAESQGRQSLSQP”, the “soluble fraction (log2)” value was -0.0586. With “HMEMTDKEEELMRIFWNHGPMFVREIVELYPEPRPHFNTLSTFVRNLEQKGFVSHEAVGGSFRYYAV” the “soluble fraction (log2)” value was -1.44. For “HMEMTEDEITKQFDAMEREAKKEIDTGADKRAFMYGVSRTAAGMAGKNPKYARFITDKAKEVIENIAKYK”, the “soluble fraction (log2)” value was 0.207. In the case of “HMENAEALLKKLSGVLSDYEYKMLMLYADGKTPRRIAQETGQSAKSVSNALFRARTKLKELYEDQ”, the “soluble fraction (log2)” value is reported as -0.455. In the case of “HMENEIVMPVQINGKKRGDLTIARDADQASIQKAVLELDFVKAALNGGSPKKVIVVPQRIVNVV”, the “soluble fraction (log2)” value is reported as 0.127. With “HMENFKVFMKAVQEVSPVPVRFDEISSGAKGYYSNTEKEIVIQNGMSESQTMKTGIHEVTHAMLHDRDF” the “soluble fraction (log2)” value was 0.22. With “HMENFYGYEIINPEAKKFFITMGVNRYALEQWIKNKSEYGLIIVKSLYPFDPRLKLFLEKNRERIQNLIF” the “soluble fraction (log2)” value was -0.305. In the case of “HMENKLIELTLSLDKSERLDKILTQELSHTRSVIQQWLKSGFVSVNGEIVKANYKAKDGDHVTIQIE”, the “soluble fraction (log2)” value is reported as -0.379. In the case of “HMENKTGEVTVREDSALTLRQGPGTNYEKVGQAYRGDRVDVLEEQNGWYKVKTYDGKEAWASSSYISIV”, the “soluble fraction (log2)” value is reported as -0.0485. In the case of “HMENMETSDIVARYSNMPGGIIEAFHEIVDRHGFLSQEAIIEAARGFGISVAEAYGVATFYSMFS”, the “soluble fraction (log2)” value is reported as -0.42. With “HMENMRLILASNLRRIREERRLSLNKVSELTGVSKSMLGQIERGESNPTLQTVWKIANGLRVSLTDLTEVP” the “soluble fraction (log2)” value was 0.252. For “HMENRILLSEDSLKHLAQDIPIDIIEKLSVLKDQIYHRYDDFNSIVQGLLGGENYLKYKDNILSFVEQ”, the “soluble fraction (log2)” value was -0.311.
